Measurements published in patent US20240124572A1 (Bayer, published 2024).

What was measured:
[1] = target: murine IL-11 (Invigate, e.g., lot #C210819-09) (mouse) (UniProt P47873); assay: Tri-complex ELISA (mIL-11, mIL-11Ra-Fc, mgp130-Fc)
[2] = target: human IL-11 (Invigate, e.g., lot #C121021-19) (human) (UniProt P20809); assay: cell-based or functional assay
[3] = target: murine IL-11 (Invigate, e.g., lot #C210819-09) (mouse) (UniProt P47873); assay: cell-based or functional assay
[4] = target: human IL-11 (Invigate, e.g., lot #C121021-19) (human) (UniProt P20809); assay: Tri-complex ELISA (hIL-11, mIL-11Ra-Fc, hgp130-Fc)
[5] = target: human IL-11 (Invigate, e.g., lot #C121021-19) (human) (UniProt P20809); assay: Di-complex ELISA (hIL-11 coated, canine IL11RA-hFc)
[6] = target: murine IL-11 (Invigate, e.g., lot #C210819-09) (mouse) (UniProt P47873); assay: Di-complex ELISA (mIL-11 coated, canine IL11RA-hFc)
[7] = target: human IL-11 (Invigate, e.g., lot #C121021-19) (human) (UniProt P20809); assay: SPR, antibody captured, single IL-11 concentration 200 nM
[8] = target: murine IL-11 (Invigate, e.g., lot #C210819-09) (mouse) (UniProt P47873); assay: as above
[9] = target: T1, murine IL-11 (Invigate, e.g., lot #C210819-09) (mouse, UniProt P47873 22-199); assay: Tri-complex ELISA (mIL-11, mIL-11Ra-Fc, mgp130-Fc)
T1 construct: Biotinylated and captured on streptavidin plates in the Di-complex ELISA; unmodified analyte in SPR; also called mIL11; mIL-11
T1 sequence: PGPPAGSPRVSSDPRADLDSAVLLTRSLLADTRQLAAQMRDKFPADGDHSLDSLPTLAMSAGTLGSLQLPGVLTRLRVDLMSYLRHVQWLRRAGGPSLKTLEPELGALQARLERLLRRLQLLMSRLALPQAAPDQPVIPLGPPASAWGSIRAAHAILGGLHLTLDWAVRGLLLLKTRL

human IL-11 (human) [10] = target: human IL-11 (human) (UniProt P20809); assay: cell-based or functional assay
[11] = target: cynomolgus IL-11 (cynomolgus) (UniProt P20808); assay: cell-based or functional assay
human IL-11 (human) [12] = target: human IL-11 (human) (UniProt P20809); assay: Di-complex ELISA, competitor canine IL11RA-hFc, IL-11 immobilised
murine IL-11 = target: T2, murine IL-11 (mouse, UniProt P47873 22-199); assay: SPR, antibody captured, IL-11 analyte
T2 construct: bought from Invigate; also called mIL-11; mIL11
T2 sequence: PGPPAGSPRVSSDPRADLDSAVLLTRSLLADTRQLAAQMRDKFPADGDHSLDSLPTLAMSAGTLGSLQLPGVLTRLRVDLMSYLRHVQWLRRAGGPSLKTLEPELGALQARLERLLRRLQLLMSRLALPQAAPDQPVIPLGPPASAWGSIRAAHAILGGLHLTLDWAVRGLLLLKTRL
Method: Antibodies were captured via anti-mouse Fc IgGs (“Mouse antibody capture kit, Order No. BR100383, Cytiva) covalently amine coupled to a Series S CMS sensor chip (Cytiva). The amine coupling was carried out according to the manufacturer's instructions using 1-ethyl-3-(3-dimethylaminopropyl) carbodiimide hydrochloride (EDC), N-hydroxysuccinimide ([…]) and ethanolamine HCl, pH 8.5 (“Amine Coupling Kit” BR-1000-50, Cytiva). Human IL-11 (Invigate, e.g., lot #C121021-19), and murine IL-11 (Invigate, e.g., lot #C210819-09) were used as analytes. […] Based on that experiment an IL-11 concentration range was chosen to optimally determine kinetics and affinity of anti-IL-11 antibodies in multicycle kinetics mode. The sensor surface was regenerated with glycine pH 1.7 after each antigen injection. Obtained sensorgrams were double referenced (subtraction of reference flow cell signal and buffer injection) and were fitted to a 1:1 Langmuir binding model to derive kinetic data using the Biacore T200 Evaluation software or the Biacore Insight software.
42 hits from the IL-11 and IL-2Ra screening analysis were selected, expressed by transient transfection of mammalian cells and purified as described in Example 15. Antibodies were then tested for human IL-11 and murine IL-11 binding by SPR as described in Example 16.

## TPP-14250 (R&D Systems, #MAB218) (antibody)
[1]
  Efficacy (%): 81.1%
  IC50: 8 nM
[2]
  Efficacy (%), Stat3 reporter gene assay: 27.1%
  IC50 [M], Stat3 reporter gene assay: 2.4e-10 M
[3]
  Efficacy (%), Stat3 reporter gene assay: 69.1%
  IC50 [M], Stat3 reporter gene assay: 1.4e-07 M
[4]
  Efficacy (%): 81.1%
  IC50: 15 nM

## GTX52814 (Genetex, clone 9T27) (antibody)
[5]
  Efficacy (%): 74.9%
  IC50: 1.9 nM
[1]
  Efficacy (%): 106%
  IC50: 17 nM
[6]
  Efficacy (%): 89.9%
  IC50: 4.7 nM
[2]
  Efficacy (%)*, RGA: 5.1%
[3]
  Efficacy (%)*, RGA: 75.5%
[4]
  Efficacy (%): 36.9%
  IC50: 14 nM
[7]
  Kd: 3.3 nM
[8]
  Kd: 2 nM

## MA5-30696 (Thermo Fisher Scientific, clone 12) (antibody)
[5]
  Efficacy (%): 8.1%
[1]
  Efficacy (%): 4.3%
[6]
  Efficacy (%): 3.1%
[2]
  Efficacy (%)*, RGA: 4.9%
[3]
  Efficacy (%)*, RGA: 17.2%
[4]
  Efficacy (%): 4.7%

## MA5-23711 (Thermo Fisher Scientific, clone 22616) (antibody)
[5]
  Efficacy (%): 51.1%
  IC50: 60 nM
[1]
  Efficacy (%): 62.3%
[6]
  Efficacy (%): 70.5%
  IC50: 29 nM
[2]
  Efficacy (%)*, RGA: 19.9%
[3]
  Efficacy (%)*, RGA: 47.6%
[4]
  Efficacy (%): 34.1%
  IC50: 19 nM
[7]
  Kd: 3.6 nM
[8]
  Kd: 2 nM

## LS-C104441 (LS-bio) (antibody)
[5]
  Efficacy (%): 71.5%
  IC50: 5.3 nM
[1]
  Efficacy (%): 98.4%
  IC50: 3.8 nM
[6]
  Efficacy (%): 91.2%
  IC50: 3.5 nM
[2]
  Efficacy (%)*, RGA: 42.6%
[3]
  Efficacy (%)*, RGA: 88%
  IC50 [M], RGA: 3.9e-09 M
[4]
  Efficacy (%): 65.6%
  IC50: 20 nM
[7]
  Kd: 3.9 nM
[8]
  Kd: 2.2 nM

## LS-C193526 (LS-bio, clone KT8) (antibody)
[5]
  Efficacy (%): 90.1%
  IC50: 10 nM
[1]
  Efficacy (%): 90.3%
  IC50: 6.6 nM
[6]
  Efficacy (%): 96.2%
  IC50: 6.5 nM
[2]
  Efficacy (%)*, RGA: 52.7%
  IC50 [M], RGA: 5e-08 M
[3]
  Efficacy (%)*, RGA: 88.3%
  IC50 [M], RGA: 5.6e-09 M
[4]
  Efficacy (%): 78.5%
  IC50: 10 nM
[7]
  Kd: 6.3 nM
[8]
  Kd: 6.2 nM

## GTX34009 (Genetex, clone 6D9A1) (antibody)
[5]
  Efficacy (%): 10.3%
[1]
  Efficacy (%): 0%
[6]
  Efficacy (%): 11.7%
[2]
  Efficacy (%)*, RGA: 21.3%
[3]
  Efficacy (%)*, RGA: 0%
[4]
  Efficacy (%): 1.1%

## MA5-30695 (Thermo Fisher Scientific, clone 9) (antibody)
[5]
  Efficacy (%): 0%
[1]
  Efficacy (%): 1.5%
[6]
  Efficacy (%): 0%
[2]
  Efficacy (%)*, RGA: 23.9%
[3]
  Efficacy (%)*, RGA: 15.6%
[4]
  Efficacy (%): 0%

B1: TPP-18087 (antibody, mouse IgG1, V domains shown)
VH: EVQLLESGGGLVQPGGSLRLSCAASGFTFSHYDMNWLRQAPGKGLEWVGVISYDGSNKFYADFVKGRFTISRDNSKNTLYLQMNSLRAEDTAVYYCARTPGSHFDYWGQGTLVTVSS
VL: QSVLTQPPSASGTPGQRVTISCSGSSSNIGNNAVNWYQQLPGTAPKLLIYYDDLLPSGVPDRFSGSKSGTSASLAISGLRSEDEADYYCSAWDDSLNGVVFGGGTKLTVLG
notes: mIgG1, Lambda
[9]
  Efficacy (%): 25%
Human IL-11 (human) [10]
  Efficacy (%) (RGA): 47.8%
[11]
  Efficacy (%) (RGA): 47.7%
Human IL-11 (human) [12]
  Efficacy (%): 0%

B2: TPP-26333 (antibody, IgG1, V domains shown)
VH: EVQLLESGGGLVQPGGSLRLSCAASGFTFSSYGFHWVRQAPGKGLEWVSVISYDGSYKYYADSVKGRFTISRDNSKNTLYLQMNSLRAEDTAVYYCAAGVPDYWGQGTLVTVSS
VL: QSVLTQPPSASGTPGQRVTISCTGSSSNIGAGYDVHWYQQLPGTAPKLLIYSNNERPSGVPDRFSGSKSGTSASLAISGLRSEDEADYYCAAWDDSLNGPVFGGGTKLTVL
Murine IL-11
  binding result: no binding
